Source: CN111018973A

Key:
cTnI质控品重组抗原 (human) [1] = target: cTnI质控品重组抗原 (human) (UniProt P19429); assay: indirect ELISA, cTnI coated at 1 ug/ml, antibody 40 ng/ml, goat anti-mouse IgG-HRP
cTnI质控品重组抗原 (human) [2] = target: cTnI质控品重组抗原 (human) (UniProt P19429); assay: indirect ELISA, cTnI coated at 1 ug/ml, antibody 8 ng/ml, goat anti-mouse IgG-HRP
cTnI质控品重组抗原 (human) [3] = target: cTnI质控品重组抗原 (human) (UniProt P19429); assay: indirect ELISA, cTnI coated at 1 ug/ml, antibody 200 ng/ml, goat anti-mouse IgG-HRP
cTnI质控品重组抗原 (human) [4] = target: cTnI质控品重组抗原 (human) (UniProt P19429); assay: indirect ELISA, cTnI coated at 1 ug/ml, antibody 0.32 ng/ml, goat anti-mouse IgG-HRP
cTnI质控品重组抗原 (human) [5] = target: cTnI质控品重组抗原 (human) (UniProt P19429); assay: indirect ELISA, cTnI coated at 1 ug/ml, antibody 1.6 ng/ml, goat anti-mouse IgG-HRP
cTnI质控品重组抗原 (human) [6] = target: cTnI质控品重组抗原 (human) (UniProt P19429); assay: indirect ELISA, cTnI coated at 1 ug/ml, antibody 1000 ng/ml, goat anti-mouse IgG-HRP
cTnI质控品重组抗原 (human) [7] = target: cTnI质控品重组抗原 (human) (UniProt P19429); assay: indirect ELISA, cTnI coated at 1 ug/ml, antibody 0 ng/ml (blank, background), goat anti-mouse IgG-HRP

UniProt P19429, sequence (P19429 whole entry): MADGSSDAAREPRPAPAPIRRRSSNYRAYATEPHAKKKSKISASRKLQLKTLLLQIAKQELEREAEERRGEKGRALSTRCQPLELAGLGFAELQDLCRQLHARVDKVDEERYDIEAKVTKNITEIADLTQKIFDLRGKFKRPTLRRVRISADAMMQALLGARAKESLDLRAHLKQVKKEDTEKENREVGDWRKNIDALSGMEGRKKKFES

OD值 (450 nm, 参考630 nm) (cTnI质控品重组抗原 (human) [1]): 1.85 OD
OD值 (450 nm, 参考630 nm) (cTnI质控品重组抗原 (human) [2]): 1.47 OD
OD值 (450 nm, 参考630 nm) (cTnI质控品重组抗原 (human) [3]): 1.91 OD
OD值 (450 nm, 参考630 nm) (cTnI质控品重组抗原 (human) [4]): 0.086 OD
OD值 (450 nm, 参考630 nm) (cTnI质控品重组抗原 (human) [5]): 0.227 OD
OD值 (450 nm, 参考630 nm) (cTnI质控品重组抗原 (human) [6]): 2.03 OD
OD值 (450 nm, 参考630 nm) (cTnI质控品重组抗原 (human) [7]): 0.062 OD
B1: Anti-cTnI 8B6 重组抗体 (WT) (antibody, V domains shown)
VH: EVQLQQSGAELVKPGASVKLSCTASGFNIRDYYMHWMKQRTEQGLDWIGRIDPEEGETKYPPEFQGKATITADTSSNTAYLQLSTLTSEDTAVYYCARYYTSYIPFVYWGQGTLVTASA
VL: DVVMTQTPLSLSVSLGDQASISCRSTQSLLYSQRHTFLHWYLQKPGQSPKLLIFKISNKFSGVPDRFSGSGSGTDFTLKISRVEAEDLGVYFCSNSTHLPYTFGSGTKLEIKR
